Assay results: patent publication US20250282892A1 (BIOMUNEX PHARMACEUTICALS, published 2025)
Blank lines part the entries; values can stand above or below the binder they belong to.

Experiments:
[1] = target: T1, HER3 protein expressed on the cell surface of SW-1990 cells (UniProt P21860 20-1342, limits assumed); assay: flow cytometry on SW-1990 cells (FIG. 10)
T1 construct: whole, on cells; SW-1990 cells carry HER3 and EGFR together; the flow cytometry signal is not split between them

[2] = target: T2, EGFR protein expressed on the cell surface of SW-1990 cells (UniProt P00533 25-1210, limits assumed); assay: flow cytometry on SW-1990 cells (FIG. 10)
T2 construct: whole, on cells; SW-1990 cells carry HER3 and EGFR together; the flow cytometry signal is not split between them

[3] = target: T3, EGFR His tag (UniProt P00533 25-645); assay: direct ELISA, His-tagged antigen coated, anti-human Fc-HRP detection
T3 construct: Recombinant His-tagged antigen; not shown: His tag

[4] = target: T4, HER3 His tag (UniProt P21860 20-643); assay: as above
T4 construct: Recombinant His-tagged antigen; not shown: His tag

binding result [1]: binds | binding result [2]: binds
B1: BMX003-010 (humanized Patri-Cetu-Fc) (bispecific antibody, human IgG1, kappa)
heavy: not shown
light 1: not shown
light 2: EIVLTQSPDFQSVTPKEKVTITCRASQSIGTNIHWYQQKPDQSPKLLIKYASESISGVPSRFSGSGSGTDFTLTINSLEAEDAATYYCQQNNNWPTTFGAGTKLEIKRTVAAPSVFIFPPSDEQLKSGTASVTCLLNNFYPREAKVQWKVDNALQSGNSQESVTEQDSKDSTYSLVSTLTLSKADYEKHKVYACEVTHQGLSSPVTKSFNRGEC

binding result [1]: binds | binding result [2]: binds
B2: BMX003-011 (humanized Patri-Cetu-Fc modified) (bispecific antibody, human IgG1, kappa)
heavy: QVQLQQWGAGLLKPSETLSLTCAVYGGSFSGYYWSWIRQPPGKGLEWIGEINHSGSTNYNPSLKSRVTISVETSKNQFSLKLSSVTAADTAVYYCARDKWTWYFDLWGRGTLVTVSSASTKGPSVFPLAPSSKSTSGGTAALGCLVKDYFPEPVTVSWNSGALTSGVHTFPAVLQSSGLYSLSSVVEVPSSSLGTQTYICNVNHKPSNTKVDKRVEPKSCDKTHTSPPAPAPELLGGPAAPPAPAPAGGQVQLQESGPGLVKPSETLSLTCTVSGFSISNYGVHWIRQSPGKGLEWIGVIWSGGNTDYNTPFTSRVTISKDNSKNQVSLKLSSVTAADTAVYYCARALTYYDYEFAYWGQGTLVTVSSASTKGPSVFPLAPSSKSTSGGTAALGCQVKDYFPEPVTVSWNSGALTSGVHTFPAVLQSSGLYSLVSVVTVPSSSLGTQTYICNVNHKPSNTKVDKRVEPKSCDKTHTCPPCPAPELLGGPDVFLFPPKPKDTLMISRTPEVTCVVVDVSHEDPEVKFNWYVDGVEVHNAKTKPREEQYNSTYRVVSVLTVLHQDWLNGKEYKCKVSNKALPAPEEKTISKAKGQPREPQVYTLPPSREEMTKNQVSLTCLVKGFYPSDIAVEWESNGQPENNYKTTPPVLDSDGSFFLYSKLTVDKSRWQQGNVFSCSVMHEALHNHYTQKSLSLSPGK
light 1: not shown
light 2: B1 light 2
notes: Identical to BMX003-010 except for 2 mutations in the Fc domain (S239D and I332E, printed '1332E')

EC50 [3]: 0.39 nM | EC50 [4]: 0.16 nM
B3: Patri-Matu-Fc (bispecific antibody, human IgG1, kappa)
heavy: not shown
light 1: not shown
light 2: DIQMTQSPSSLSASVGDRVTITCSASSSVTYMYWYQQKPGKAPKLLIYDTSNLASGVPSRFSGSGSGTDYTFTISSLQPEDIATYYCQQWSSHIFTFGQGTKVEIKRTVAAPSVFIFPPSDEQLKSGTASVTCLLNNFYPREAKVQWKVDNALQSGNSQESVTEQDSKDSTYSLVSTLTLSKADYEKHKVYACEVTHQGLSSPVTKSFNRGEC
notes: Tetravalent tandem Fab-Fc: external Fabs patritumab (anti-HER3), internal Fabs matuzumab (anti-EGFR); 2 heavy chains and 4 light chains; also called 3Patri-1Matu-Fc

EC50 [3]: 0.09 nM
B4: Matuzumab (antibody, V domains shown)
VH: QVQLVQSGAEVKKPGASVKVSCKASGYTFTSHWMHWVRQAPGQGLEWIGEFNPSNGRTNYNEKFKSKATMTVDTSTNTAYMELSSLRSEDTAVYYCASRDYDYAGRYFDYWGQGTLVTVSS
VL: DIQMTQSPSSLSASVGDRVTITCSASSSVTYMYWYQQKPGKAPKLLIYDTSNLASGVPSRFSGSGSGTDYTFTISSLQPEDIATYYCQQWSSHIFTFGQGTKVEIK
notes: Parental monoclonal antibody used as positive control; also called EMD72000; parental antibody (anti-EGFR)
